Earlier results, collected in paper PMC10680782.
pKd: −log10 of the molar value.

Target: VE-cadherin (Homo sapiens) (UniProt P33151)
Sequence of UniProt P33151 (P33151 48-599): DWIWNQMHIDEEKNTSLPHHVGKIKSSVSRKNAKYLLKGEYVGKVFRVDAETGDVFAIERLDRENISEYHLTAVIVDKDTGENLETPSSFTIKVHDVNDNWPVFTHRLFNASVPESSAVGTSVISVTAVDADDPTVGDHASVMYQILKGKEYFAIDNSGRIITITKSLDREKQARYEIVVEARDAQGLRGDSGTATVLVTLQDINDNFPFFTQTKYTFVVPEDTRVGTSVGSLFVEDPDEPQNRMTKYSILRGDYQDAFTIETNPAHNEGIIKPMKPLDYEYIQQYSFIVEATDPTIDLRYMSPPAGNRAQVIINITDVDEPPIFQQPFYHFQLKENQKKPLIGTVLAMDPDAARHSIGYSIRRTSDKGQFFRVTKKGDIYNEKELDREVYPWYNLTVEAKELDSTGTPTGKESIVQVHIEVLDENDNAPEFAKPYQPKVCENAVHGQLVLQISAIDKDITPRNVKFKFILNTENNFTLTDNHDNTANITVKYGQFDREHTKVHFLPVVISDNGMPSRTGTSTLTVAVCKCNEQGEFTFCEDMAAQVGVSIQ

For “fibrin β15-42 fragment 15-42 (from UniProt P02675)”, the pKd is given as 3.57.
